In the supplement of paper PMC10266784:

B1: library; numbered along this chain (parent)
chain: MAAAAAAAAEQQSSNGPVKKSMREKAVERRSVNKEHNSNFKAGYIPIDEDRLHKTGLRGRKGNLAICVIILLFILAVINLIITLVIWAVIRIGPNGCDSMEFHESGLLRFKQVSDMGVIHPLYKSTVGGRRNENLVITGNNQPIVFQQGTTKLSVENNKTSITSDIGMQFFDPRTQNILFSTDYETHEFHLPSGVKSLNVQKASTERITSNATSDLNIKVDGRAIVRGNEGVFIMGKTIEFHMGGNMELKAENSIILNGSVMVSTTRLPSSSSGDQLGSGDWVRYKLCMCADGTLFKVQVTSQNMGCQISDNPCGNTH

Variants of: B1
Experiment: SGCB cell-surface expression functional score (HA stain, bin4 vs bin1, normalised to synonymous) (log10 ratio); higher = more cell-surface SGCB (functional)
Method: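 Deep mutational scan of full-length human SGCB (YFP-SGCB-HA, NNN codon sublibraries A-F) delivered by lentivirus at low MOI into ADG-HEK293 cells stably expressing SGCA, SGCD and SGCG. YFP-positive cells were stained for surface HA on unpermeabilized cells and FACS-sorted into bins. The functional score is log10(frequency in high bin 4 / frequency in low bin 1), normalised per chunk so that synonymous variants have mean 0 and SD 0.5. Scores are the median over codons and over duplicate biological replicates; scores below -0.5 are called non-functional. Scale: negative means deleterious.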

Compared with MAAAAAAAAEQQSSNGPVKKSMREKAVERRSVNKEHNSNFKAGYIPIDEDRLHKTGLRGRKGNLAICVIILLFILAVINLIITLVDWAVIRIGPNGCDSMEFHESGLLRFKQVSDMGVIHPLYKSTVGGRRNENLVITGNNQPIVFQQGTTKLSVENNKTSITSDIGMQFFDPRTQNILFSTDYETHEFHLPSGVKSLNVQKASTERITSNATSDLNIKVDGRAIVRGNEGVFIMGKTIEFHMGGNMELKAENSIILNGSVMVSTTRLPSSSSGDQLGSGDWVRYKLCMCADGTLFKVQVTSQNMGCQISDNPCGNTH [I86D], MAAAAAAAAEQQSSNGPVKKSMREKAVERRSVNKEHNSNFKAGYIPIDEDRLHKTGLRGRKGNLAICVIILLFILAVINLIITLVFWAVIRIGPNGCDSMEFHESGLLRFKQVSDMGVIHPLYKSTVGGRRNENLVITGNNQPIVFQQGTTKLSVENNKTSITSDIGMQFFDPRTQNILFSTDYETHEFHLPSGVKSLNVQKASTERITSNATSDLNIKVDGRAIVRGNEGVFIMGKTIEFHMGGNMELKAENSIILNGSVMVSTTRLPSSSSGDQLGSGDWVRYKLCMCADGTLFKVQVTSQNMGCQISDNPCGNTH [I86F] is higher in “SGCB cell-surface expression functional score (log10)” value: -0.79 for the first, -0.48 for the second.

First: MAAAAAAAAEQQSSNGPVKKSMREKAVERRSVNKEHNSNFKAGYIPIDEDRLHKTGLRGRKGNLAICVIILLFILAVINLIITLVGWAVIRIGPNGCDSMEFHESGLLRFKQVSDMGVIHPLYKSTVGGRRNENLVITGNNQPIVFQQGTTKLSVENNKTSITSDIGMQFFDPRTQNILFSTDYETHEFHLPSGVKSLNVQKASTERITSNATSDLNIKVDGRAIVRGNEGVFIMGKTIEFHMGGNMELKAENSIILNGSVMVSTTRLPSSSSGDQLGSGDWVRYKLCMCADGTLFKVQVTSQNMGCQISDNPCGNTH [I86G]
Second: MAAAAAAAAEQQSSNGPVKKSMREKAVERRSVNKEHNSNFKAGYIPIDEDRLHKTGLRGRKGNLAICVIILLFILAVINLIITLVEWAVIRIGPNGCDSMEFHESGLLRFKQVSDMGVIHPLYKSTVGGRRNENLVITGNNQPIVFQQGTTKLSVENNKTSITSDIGMQFFDPRTQNILFSTDYETHEFHLPSGVKSLNVQKASTERITSNATSDLNIKVDGRAIVRGNEGVFIMGKTIEFHMGGNMELKAENSIILNGSVMVSTTRLPSSSSGDQLGSGDWVRYKLCMCADGTLFKVQVTSQNMGCQISDNPCGNTH [I86E]
The “SGCB cell-surface expression functional score (log10)” value of the first is lower: -0.59 for the first, -0.39 for the second.

MAAAAAAAAEQQSSNGPVKKSMREKAVERRSVNKEHNSNFKAGYIPIDEDRLHKTGLRGRKGNLAICVIILLFILAVINLIITLVAWAVIRIGPNGCDSMEFHESGLLRFKQVSDMGVIHPLYKSTVGGRRNENLVITGNNQPIVFQQGTTKLSVENNKTSITSDIGMQFFDPRTQNILFSTDYETHEFHLPSGVKSLNVQKASTERITSNATSDLNIKVDGRAIVRGNEGVFIMGKTIEFHMGGNMELKAENSIILNGSVMVSTTRLPSSSSGDQLGSGDWVRYKLCMCADGTLFKVQVTSQNMGCQISDNPCGNTH [I86A] and MAAAAAAAAEQQSSNGPVKKSMREKAVERRSVNKEHNSNFKAGYIPIDEDRLHKTGLRGRKGNLAICVIILLFILAVINLIITLVCWAVIRIGPNGCDSMEFHESGLLRFKQVSDMGVIHPLYKSTVGGRRNENLVITGNNQPIVFQQGTTKLSVENNKTSITSDIGMQFFDPRTQNILFSTDYETHEFHLPSGVKSLNVQKASTERITSNATSDLNIKVDGRAIVRGNEGVFIMGKTIEFHMGGNMELKAENSIILNGSVMVSTTRLPSSSSGDQLGSGDWVRYKLCMCADGTLFKVQVTSQNMGCQISDNPCGNTH [I86C] are within 0.2 log units of each other in “SGCB cell-surface expression functional score (log10)” value: -0.08 for the first, -0.24 for the second.

MAAAAAAAAEQQSSNGPVKKSMREKAVERRSVNKEHNSNFKAGYIPIDEDRLHKTGLRGRKGNLAICVIILLFILAVINLIITLSIWAVIRIGPNGCDSMEFHESGLLRFKQVSDMGVIHPLYKSTVGGRRNENLVITGNNQPIVFQQGTTKLSVENNKTSITSDIGMQFFDPRTQNILFSTDYETHEFHLPSGVKSLNVQKASTERITSNATSDLNIKVDGRAIVRGNEGVFIMGKTIEFHMGGNMELKAENSIILNGSVMVSTTRLPSSSSGDQLGSGDWVRYKLCMCADGTLFKVQVTSQNMGCQISDNPCGNTH [V85S] and MAAAAAAAAEQQSSNGPVKKSMREKAVERRSVNKEHNSNFKAGYIPIDEDRLHKTGLRGRKGNLAICVIILLFILAVINLIITLTIWAVIRIGPNGCDSMEFHESGLLRFKQVSDMGVIHPLYKSTVGGRRNENLVITGNNQPIVFQQGTTKLSVENNKTSITSDIGMQFFDPRTQNILFSTDYETHEFHLPSGVKSLNVQKASTERITSNATSDLNIKVDGRAIVRGNEGVFIMGKTIEFHMGGNMELKAENSIILNGSVMVSTTRLPSSSSGDQLGSGDWVRYKLCMCADGTLFKVQVTSQNMGCQISDNPCGNTH [V85T] are within 0.2 log units of each other in “SGCB cell-surface expression functional score (log10)” value: -0.2 for the first, -0.05 for the second.

MAAAAAAAAEQQSSNGPVKKSMREKAVERRSVNKEHNSNFKAGYIPIDEDRLHKTGLRGRKGNLAICVIILLFILAVINLIITLIIWAVIRIGPNGCDSMEFHESGLLRFKQVSDMGVIHPLYKSTVGGRRNENLVITGNNQPIVFQQGTTKLSVENNKTSITSDIGMQFFDPRTQNILFSTDYETHEFHLPSGVKSLNVQKASTERITSNATSDLNIKVDGRAIVRGNEGVFIMGKTIEFHMGGNMELKAENSIILNGSVMVSTTRLPSSSSGDQLGSGDWVRYKLCMCADGTLFKVQVTSQNMGCQISDNPCGNTH [V85I] and MAAAAAAAAEQQSSNGPVKKSMREKAVERRSVNKEHNSNFKAGYIPIDEDRLHKTGLRGRKGNLAICVIILLFILAVINLIITLNIWAVIRIGPNGCDSMEFHESGLLRFKQVSDMGVIHPLYKSTVGGRRNENLVITGNNQPIVFQQGTTKLSVENNKTSITSDIGMQFFDPRTQNILFSTDYETHEFHLPSGVKSLNVQKASTERITSNATSDLNIKVDGRAIVRGNEGVFIMGKTIEFHMGGNMELKAENSIILNGSVMVSTTRLPSSSSGDQLGSGDWVRYKLCMCADGTLFKVQVTSQNMGCQISDNPCGNTH [V85N] are within 0.2 log units of each other in “SGCB cell-surface expression functional score (log10)” value: -0.18 for the first, -0.37 for the second.

Compared with MAAAAAAAAEQQSSNGPVKKSMREKAVERRSVNKEHNSNFKAGYIPIDEDRLHKTGLRGRKGNLAICVIILLFILAVINLIITLPIWAVIRIGPNGCDSMEFHESGLLRFKQVSDMGVIHPLYKSTVGGRRNENLVITGNNQPIVFQQGTTKLSVENNKTSITSDIGMQFFDPRTQNILFSTDYETHEFHLPSGVKSLNVQKASTERITSNATSDLNIKVDGRAIVRGNEGVFIMGKTIEFHMGGNMELKAENSIILNGSVMVSTTRLPSSSSGDQLGSGDWVRYKLCMCADGTLFKVQVTSQNMGCQISDNPCGNTH [V85P], MAAAAAAAAEQQSSNGPVKKSMREKAVERRSVNKEHNSNFKAGYIPIDEDRLHKTGLRGRKGNLAICVIILLFILAVINLIITLLIWAVIRIGPNGCDSMEFHESGLLRFKQVSDMGVIHPLYKSTVGGRRNENLVITGNNQPIVFQQGTTKLSVENNKTSITSDIGMQFFDPRTQNILFSTDYETHEFHLPSGVKSLNVQKASTERITSNATSDLNIKVDGRAIVRGNEGVFIMGKTIEFHMGGNMELKAENSIILNGSVMVSTTRLPSSSSGDQLGSGDWVRYKLCMCADGTLFKVQVTSQNMGCQISDNPCGNTH [V85L] is higher in “SGCB cell-surface expression functional score (log10)” value: -1.14 for the first, 0.24 for the second.

First: MAAAAAAAAEQQSSNGPVKKSMREKAVERRSVNKEHNSNFKAGYIPIDEDRLHKTGLRGRKGNLAICVIILLFILAVINLIITLHIWAVIRIGPNGCDSMEFHESGLLRFKQVSDMGVIHPLYKSTVGGRRNENLVITGNNQPIVFQQGTTKLSVENNKTSITSDIGMQFFDPRTQNILFSTDYETHEFHLPSGVKSLNVQKASTERITSNATSDLNIKVDGRAIVRGNEGVFIMGKTIEFHMGGNMELKAENSIILNGSVMVSTTRLPSSSSGDQLGSGDWVRYKLCMCADGTLFKVQVTSQNMGCQISDNPCGNTH [V85H]
Second: MAAAAAAAAEQQSSNGPVKKSMREKAVERRSVNKEHNSNFKAGYIPIDEDRLHKTGLRGRKGNLAICVIILLFILAVINLIITLMIWAVIRIGPNGCDSMEFHESGLLRFKQVSDMGVIHPLYKSTVGGRRNENLVITGNNQPIVFQQGTTKLSVENNKTSITSDIGMQFFDPRTQNILFSTDYETHEFHLPSGVKSLNVQKASTERITSNATSDLNIKVDGRAIVRGNEGVFIMGKTIEFHMGGNMELKAENSIILNGSVMVSTTRLPSSSSGDQLGSGDWVRYKLCMCADGTLFKVQVTSQNMGCQISDNPCGNTH [V85M]
The “SGCB cell-surface expression functional score (log10)” value of the first is lower: -0.11 for the first, 0.58 for the second.

MAAAAAAAAEQQSSNGPVKKSMREKAVERRSVNKEHNSNFKAGYIPIDEDRLHKTGLRGRKGNLAICVIILLFILAVINLIITLRIWAVIRIGPNGCDSMEFHESGLLRFKQVSDMGVIHPLYKSTVGGRRNENLVITGNNQPIVFQQGTTKLSVENNKTSITSDIGMQFFDPRTQNILFSTDYETHEFHLPSGVKSLNVQKASTERITSNATSDLNIKVDGRAIVRGNEGVFIMGKTIEFHMGGNMELKAENSIILNGSVMVSTTRLPSSSSGDQLGSGDWVRYKLCMCADGTLFKVQVTSQNMGCQISDNPCGNTH [V85R] and MAAAAAAAAEQQSSNGPVKKSMREKAVERRSVNKEHNSNFKAGYIPIDEDRLHKTGLRGRKGNLAICVIILLFILAVINLIITLQIWAVIRIGPNGCDSMEFHESGLLRFKQVSDMGVIHPLYKSTVGGRRNENLVITGNNQPIVFQQGTTKLSVENNKTSITSDIGMQFFDPRTQNILFSTDYETHEFHLPSGVKSLNVQKASTERITSNATSDLNIKVDGRAIVRGNEGVFIMGKTIEFHMGGNMELKAENSIILNGSVMVSTTRLPSSSSGDQLGSGDWVRYKLCMCADGTLFKVQVTSQNMGCQISDNPCGNTH [V85Q] are within 0.2 log units of each other in “SGCB cell-surface expression functional score (log10)” value: -0.06 for the first, 0.08 for the second.

MAAAAAAAAEQQSSNGPVKKSMREKAVERRSVNKEHNSNFKAGYIPIDEDRLHKTGLRGRKGNLAICVIILLFILAVINLIITLKIWAVIRIGPNGCDSMEFHESGLLRFKQVSDMGVIHPLYKSTVGGRRNENLVITGNNQPIVFQQGTTKLSVENNKTSITSDIGMQFFDPRTQNILFSTDYETHEFHLPSGVKSLNVQKASTERITSNATSDLNIKVDGRAIVRGNEGVFIMGKTIEFHMGGNMELKAENSIILNGSVMVSTTRLPSSSSGDQLGSGDWVRYKLCMCADGTLFKVQVTSQNMGCQISDNPCGNTH [V85K] and MAAAAAAAAEQQSSNGPVKKSMREKAVERRSVNKEHNSNFKAGYIPIDEDRLHKTGLRGRKGNLAICVIILLFILAVINLIITLYIWAVIRIGPNGCDSMEFHESGLLRFKQVSDMGVIHPLYKSTVGGRRNENLVITGNNQPIVFQQGTTKLSVENNKTSITSDIGMQFFDPRTQNILFSTDYETHEFHLPSGVKSLNVQKASTERITSNATSDLNIKVDGRAIVRGNEGVFIMGKTIEFHMGGNMELKAENSIILNGSVMVSTTRLPSSSSGDQLGSGDWVRYKLCMCADGTLFKVQVTSQNMGCQISDNPCGNTH [V85Y] are within 0.2 log units of each other in “SGCB cell-surface expression functional score (log10)” value: 0.01 for the first, -0.17 for the second.

In the case of MAAAAAAAAEQQSSNGPVKKSMREKAVERRSVNKEHNSNFKAGYIPIDEDRLHKTGLRGRKGNLAICVIILLFILAVINLIITLWIWAVIRIGPNGCDSMEFHESGLLRFKQVSDMGVIHPLYKSTVGGRRNENLVITGNNQPIVFQQGTTKLSVENNKTSITSDIGMQFFDPRTQNILFSTDYETHEFHLPSGVKSLNVQKASTERITSNATSDLNIKVDGRAIVRGNEGVFIMGKTIEFHMGGNMELKAENSIILNGSVMVSTTRLPSSSSGDQLGSGDWVRYKLCMCADGTLFKVQVTSQNMGCQISDNPCGNTH [V85W], the “SGCB cell-surface expression functional score (log10)” value is reported as -0.09.
